A word on the Kd: it is a measure of binding affinity in units of concentration. Low values mean higher affinity, high ones lower affinity.

The source of these data is US20230094463A1 (TRUEBINDING, published 2023).

Assay [1] deals with T1, Human Galectin-3 protein (Acro Biosystems, GA3-H5129) (human, UniProt P17931 2-250).
T1 construct: Bought protein; also called Gal3-ECD-His; Gal3-His; not shown: linker-spaced 6-histidine tag
Briefly: blocking ELISA (Gal3 coated; antibody 3 µg/mL + INSR). (ELISA stands for enzyme-linked immunosorbent assay.)

The target of assay [2] is T2, Human GAL3 protein (TrueBinding, QCB200349 / QCB200352; R&D Systems, 8259-GA) (human, UniProt P17931 2-250).
T2 construct: also called human galectin-3
Briefly: blocking ELISA (GAL3 coated; antibody + biotinylated ITGa3).

Assay [3] concerns the target T2, Human GAL3 protein (TrueBinding, …). Briefly: blocking ELISA (GAL3 coated; antibody + biotinylated ITGaV).
Assay [4] has the same target. Description: blocking ELISA (GAL3 coated; antibody + biotinylated ITGb3).
Assay [5] has as its target T1, Human Galectin-3 protein (Acro …). Description: ELISA, blocking of INSR binding to coated Gal3.
For assay [6] the target is unchanged. Description: SPR (Biacore T200), antibody captured, Galectin-3 as analyte.
Assay [7] has the same target. Briefly: SPR (Biacore T200; antibody captured via anti-Fc, Galectin-3 analyte, 1:1 fit).
The target in assay [8] is T2, Human GAL3 protein (TrueBinding, …). Description: cell-based or functional assay.
Assay [9] has as its target T3, Gal3 Peptide 7 (AYPGAPGAYPGAPAPGVYPG) (human).
T3 peptide: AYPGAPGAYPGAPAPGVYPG
Description: peptide ELISA (peptide coated).

In assay [10] the target is T4, Gal3 Peptide 1 (ADNFSLHDALSGSGNPNPQG) (human).
T4 peptide: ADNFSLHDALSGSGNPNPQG
Briefly: peptide ELISA (peptide coated).

The target in assay [11] is T1, Human Galectin-3 protein (Acro …). Briefly: ELISA, blocking of INSR binding to coated Gal3. This is another data set of the same source.
Assay [12] has as its target T5, Gal3 Peptide 6 (GAYPGQAPPGAYPGAPGAYP) (human).
T5 peptide: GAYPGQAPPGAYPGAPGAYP
Briefly: peptide ELISA: Gal3 peptide coated on the plate, antibody (hIgG4 S228P) at 5 µg/mL, anti-human IgG-HRP, A450 (Example 18).

The target of assay [13] is T3, Gal3 Peptide 7 (AYPGAPGAYPGAPAPGVYPG). The description is as above.
Assay [14] deals with T4, Gal3 Peptide 1 (ADNFSLHDALSGSGNPNPQG). The assay is described as above.
The target in assay [15] is T5, Gal3 Peptide 6 (GAYPGQAPPGAYPGAPGAYP). Briefly: peptide ELISA (peptide coated; antibody hIgG4 [S228P], 5 µg/mL).
The target in assay [16] is T3, Gal3 Peptide 7 (AYPGAPGAYPGAPAPGVYPG). The description is as above.
The target of assay [17] is T4, Gal3 Peptide 1 (ADNFSLHDALSGSGNPNPQG). The assay is described as above.

Positions count from the first letter of the chain named.

B1: 13G4.2F8 (antibody, V domains shown)
VH: QVQLQQPGAELVKPGASVKLSCKASGYTFTSYWMHWVKQRPGQGLEWIGMIHPNSGSTDYNEKFKNKATLNVDKSSSTAYIQLSSLTSEDSAVYYCTRWGIYYYARDYWGQGTTLTVSS
VL: DIVMTQSQKFMSTSVGERVSITCKASQNVGTNVAWYQQKAGQSLELLIYGASNRHTGVPDRFTGSGSGTDFTLTITNVQSEDMTNYFCEQYSNFPLTFGAGTKLELK
Regarding B1, the “reduction of Gal3-INSR binding (%)” value in [1] is no more than 30%. Further, the “percent blockade of GAL3-ITGa3 interaction” value in assay [2] is less than 35%. Further, the “percent blockade of GAL3-ITGaV interaction” value in [3] was less than 30%. The “percent blockade of GAL3-ITGb3 interaction” value in assay [4] is less than 10%. Moreover, the “Gal3-INSR Blocking @ 3 µg/mL” value in assay [5] came to 11%. Also, the Kd in assay [6] is 2.53 nM; in assay [7] it was 18.4 nM.

B2: 20D11.2C6 (antibody, V domains shown)
VH: EVQLQQSGPELVKPGASVKISCKASGYTFTDFYINWVKQSHGKSLEWIGDINPKNGGINYNPKFKIKATLTVDKSSSTSYMDLRGLTSEDSAVYYCTSGYGFPYWGQGTLVTVSA
VL: DIQMNQSPSSLSASLGDTITITCRASQNIYIWLSWYQQKPGNIPKLLIYKASNLHTGVPSRFSGSGSGTDFTLTISTLQPEDIATYFCLQGQSYPLTFGAGTKLEMK
With B2, the “inhibition of Jurkat T cell adhesion” value in [8] was greater than 90%. The “Gal3-INSR binding remaining, % of unblocked sample” value (“Gal3-INSR binding remaining, %” below) in assay [1] is less than 5%. Besides, in assay [2], the “percent blockade of GAL3-ITGa3 interaction” value is greater than 90%. Further, the “percent blockade of GAL3-ITGaV interaction” value in assay [3] was greater than 90%. Moreover, the “percent blockade of GAL3-ITGb3 interaction” value in [4] is greater than 90%. In [5], the “Gal3-INSR Blocking @ 3 µg/mL” value turned out to be 100%. The molecule also had a Kd in assay [6] of 27.8 nM.

B3: 6H6.2D6 (antibody, V domains shown)
VH: QIQLVQSGPELKKPGETVKISCKASGYTFTTYGMSWVKQAPGKGLKWMAWINTYSGVPTYADDFKGRFAFSLETSASTAYLQINNLTNEDTATYFCARGPYAMDYWGQGTSVTVSS
VL: DIQMTQTTSSLSASLGDRVTISCSASQGISNYLNWYQQKPDGTVKLLIYYTSSLHSGVPSRFSGSGSGTDYSLTISNLEPEDIATYYCQQYSELPYTFGSGTKLEIK
For B3, the binding result in [9] and in assay [10] was “binds” each time. Moreover, in [1], the “Gal3-INSR binding remaining, %” value was less than 5%. In assay [11], the “IC50 (read off the curve)” value was roughly 0.5 µg/mL. For the same molecule, the “Gal3-INSR Blocking @ 3 µg/mL” value in [5] was 100%. For the same molecule, the Kd in assay [6] was 4.86 nM.

B4: 23H9.2E4 (antibody, V domains shown)
VH: B3 VH with G33A, A49G, F64L, T87K
VL: B3 VL with S30N, T51A, E93Q, L94V
B4: the “Gal3-INSR binding remaining, %” value in [1] was less than 5%. For the same molecule, the “percent blockade of GAL3-ITGa3 interaction” value in assay [2] is greater than 90%. For the same molecule, in assay [3], the “percent blockade of GAL3-ITGaV interaction” value was greater than 90%. Further, the “percent blockade of GAL3-ITGb3 interaction” value in assay [4] is greater than 90%. Moreover, the “Gal3-INSR Blocking @ 3 µg/mL” value in assay [5] was 100%. Also, binding in assay [6] was characterised by a dissociation constant (Kd) of 4.26 nM. The binding result in assay [12], in [13] and in assay [14] was “binds” each time.

B5: 20H5.A3 (antibody, V domains shown)
VH: B3 VH with T17S, T28A, K38Q, A49G, I51V, Y60C, T87R
VL: B3 VL with S22N, G28D, H55L, Y87F, E93K, K103H
Turning to B5, the “Gal3-INSR binding remaining, %” value in assay [1] is less than 5%. Besides, the “percent blockade of GAL3-ITGa3 interaction” value in assay [2] was greater than 90%. The “percent blockade of GAL3-ITGaV interaction” value in assay [3] was greater than 90%. In addition, in assay [4], the “percent blockade of GAL3-ITGb3 interaction” value was greater than 90%. For the same molecule, the “IC50 (read off the curve)” value in assay [11] was roughly 0.5 µg/mL. Further, the binding result in [15], in assay [16] and in [17] was “binds” in each case. In addition, the “Gal3-INSR Blocking @ 3 µg/mL” value in [5] was found to be 100%. In addition, the Kd in assay [6] turned out to be 3.95 nM.
